In patent US20240228562A1 (Pieris, published 2024):
Where a chain is given by its changes, count along the chain named. One block for each binder: values may come before it.

Assays:
[1] = target: T1, recombinant rat CTGF protein (R&D Systems) (rat, UniProt Q9R1E9 25-347); experiment: SPR (Biacore)
T1 construct: Bought; also called rCTGF
T1 sequence: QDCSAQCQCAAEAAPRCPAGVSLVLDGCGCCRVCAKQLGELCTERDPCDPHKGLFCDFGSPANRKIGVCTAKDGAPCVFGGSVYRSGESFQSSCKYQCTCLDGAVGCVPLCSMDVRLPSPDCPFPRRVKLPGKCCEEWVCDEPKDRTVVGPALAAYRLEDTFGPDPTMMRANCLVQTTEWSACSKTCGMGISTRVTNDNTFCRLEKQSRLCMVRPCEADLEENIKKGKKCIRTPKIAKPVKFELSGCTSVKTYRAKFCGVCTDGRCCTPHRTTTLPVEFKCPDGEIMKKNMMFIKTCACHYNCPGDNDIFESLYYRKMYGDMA
Experimental: (§1) The binding of exemplary lipocalin muteins to human (Creative Biomart), cynomolgus, rat (R&D Systems) and mouse CTGF (Abbexa) was determined by SPR using a Biacore instrument (Cytiva, formerly GE Healthcare). Some targets were fused to a human IgG1 Fc tag, and captured via the anti-human IgG antibody kit, others were directly immobilized.
(§2) For some measurements, human CTGF with a human IgG1 Fc Tag or rat or murine CTGF without a tag were directly immobilized to a CM5 Chip. The carboxyl groups on the chip were activated using 1-ethyl-3-(3-dimethylaminopropyl)-carbodiimide (EDC) and N-hydroxysuccinimide (NHS). […] Residual non-reacted NHS-esters were blocked by passing a solution of 1 M ethanolamine across the surface. The reference channel was activated/deactivated. For the capture setting, targets with an IgG Fc Tag at 0.25-2.5 μg/mL in HBS-EP+ buffer were captured by the anti-human IgG-Fc antibody at the chip surface for 180 s at a flow rate of 10 μL/min.
(§3) The binding assay was carried out with a contact time of 180 s, a dissociation time of 900-3600 s and a flow rate of 30 μL/min. All measurements were performed at 25° C. […] For the directly immobilized targets, the same regeneration conditions were used. Prior to the protein measurements, three startup cycles were performed for conditioning purposes.

cynomolgus CTGF = target: T2, cynomolgus CTGF (cynomolgus, UniProt I7G525 27-349); experiment: SPR (Biacore)
T2 construct: also called cyCTGF
T2 sequence: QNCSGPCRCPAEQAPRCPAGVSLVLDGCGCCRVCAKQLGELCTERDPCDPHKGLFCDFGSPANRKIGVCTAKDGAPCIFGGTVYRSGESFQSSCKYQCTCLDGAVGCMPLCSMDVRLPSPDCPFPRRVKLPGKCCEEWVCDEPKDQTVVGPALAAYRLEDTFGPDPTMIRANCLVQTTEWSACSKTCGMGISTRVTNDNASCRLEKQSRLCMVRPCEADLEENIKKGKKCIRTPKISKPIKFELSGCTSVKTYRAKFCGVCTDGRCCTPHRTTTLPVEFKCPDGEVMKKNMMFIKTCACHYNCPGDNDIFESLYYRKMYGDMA
Experimental: as §1, §2, §3

mouse CTGF (Abbexa) = target: T3, mouse CTGF (Abbexa) (mouse, UniProt P29268 26-348, limits assumed); experiment: SPR (Biacore)
T3 construct: also called Murine CTGF; mCTGF
T3 sequence (looked up): T1 sequence with R16H, V148A
Experimental: as §1, §2, §3

[2] = target: T4, recombinant human CTGF-Fc protein (Creative Biomart) (human); experiment: SPR (Biacore)
T4 construct: Bought; also called human CTGF with a human IgG1 Fc Tag
T4 sequence (chain, as listed by the source limits assumed): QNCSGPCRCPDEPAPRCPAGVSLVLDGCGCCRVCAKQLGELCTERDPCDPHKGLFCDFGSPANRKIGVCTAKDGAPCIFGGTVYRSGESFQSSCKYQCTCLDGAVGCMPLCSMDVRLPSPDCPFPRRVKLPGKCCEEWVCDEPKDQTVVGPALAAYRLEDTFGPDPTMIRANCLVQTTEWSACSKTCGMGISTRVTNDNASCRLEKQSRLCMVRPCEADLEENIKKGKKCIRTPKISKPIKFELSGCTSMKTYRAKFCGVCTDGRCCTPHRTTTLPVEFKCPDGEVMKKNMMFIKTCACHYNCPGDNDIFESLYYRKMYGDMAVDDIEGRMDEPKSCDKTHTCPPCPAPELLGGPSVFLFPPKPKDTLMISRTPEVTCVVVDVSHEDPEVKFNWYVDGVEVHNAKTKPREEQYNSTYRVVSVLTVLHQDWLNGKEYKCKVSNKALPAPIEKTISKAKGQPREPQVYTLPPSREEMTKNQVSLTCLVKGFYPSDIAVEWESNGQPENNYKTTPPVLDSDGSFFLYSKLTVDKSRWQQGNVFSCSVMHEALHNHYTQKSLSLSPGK
Experimental: as §1, §2, §3

[3] = target: T5, recombinant human CTGF protein (R&D Systems, SEQ ID NO: 79) (human, UniProt P29279 27-349); experiment: HTRF, 1 nM biotinylated human CTGF
T5 construct: Bought; also called human CTGF/CNN2; huCTGF
T5 sequence: T2 sequence with A11D, Q13P, V250M
Experimental: Binding of some fusion proteins was tested by a Homogeneous Time Resolved Fluorescence (HTRF assay). In detail, 1 nM of biotinylated human CTGF (R&D Systems) was incubated for 1 h with a titration of some lipocalins starting at 5 nM in 384 Flat Bottom White Polystyrol microtiter plate (Greiner). Samples were diluted in PBS containing 0.1% Tween 20 and 2% BSA. As donor, Streptavidin-Terbium at a concentration of 0,006 μg/mL was used, the acceptor was 0.2 μg/mL anti-His-d2 (both CisBio). After another 1 h of incubation, the fluorescence intensity of the donor and acceptor on the plate was read using a fluorescence microplate reader M1000 (Tecan) with the standard settings recommended by CisBio. The calculated ratio of signals was used for the curve fitting performed in GraphPad Prism 7 software.

B2: fusion protein of SEQ ID NO: 68 (designed binder)
chain: QDSTSDLIPAPPLSKVPLQQNFQDNQFQGKWYVVGLAGNAILREDKQPAKMFATIYELKEDKSYDVTSVRFEAKSCSYTSKTFVPGSQPGEFTAGNIKSAPGQTSTLVRVVSTNYNQHAMVFFKHVSQNRETFVITLYGRTKELTSELKENFIRFSKSLGLPENHIVFPVPIDQCIDGGGGGSGGGGSGGGGSQDSTSDLIPAPPLSKVPLQQNFQDNQFQGKWYVVGWAGNVKLREDKQPQKMSATIYELKEDKSYDVTEVVFEQKKCHYIIKTFVPGSQPGEFTAGDIKSPPGYTSSLVRVVSTNYNQHAMVFFKKVSQNREFFWITLYGRTKELTSELKENFIRFSKSLGLPENHIVFPVPIDQCIDG
notes: not shown: C-terminal His-tag
- EC50 [3]: 0.56 nM

B3: fusion protein of SEQ ID NO: 71 (designed binder)
chain: B2 chain with Q47Y, A73N, S77V, S80I, A94T, T132F
notes: not shown: C-terminal His-tag
- EC50 [3]: 0.94 nM

B5: fusion protein of SEQ ID NO: 62 (designed binder)
chain: QDSTSDLIPAPPLSKVPLQQNFQDNQFQGKWYVVGRAGNNQLREDKSPPKMWATIYELKEDKSYDVTHVHFSTKKCRYIIDTFVPGSQPGEFTAGAIKSGPGLTSPLVRVVSTNYNQHAMVFFKWVTQNREWFTITLYGRTKELTSELKENFIRFSKSLGLPENHIVFPVPIDQCIDGGGGGSGGGGSGGGGSQDSTSDLIPAPPLSKVPLQQNFQDNQFQGKWYVVGWAGNVKLREDKQPQKMSATIYELKEDKSYDVTEVVFEQKKCHYIIKTFVPGSQPGEFTAGDIKSPPGYTSSLVRVVSTNYNQHAMVFFKKVSQNREFFWITLYGRTKELTSELKENFIRFSKSLGLPENHIVFPVPIDQCIDG
notes: not shown: C-terminal His-tag
- EC50 [3]: 0.63 nM

B6: fusion protein of SEQ ID NO: 70 (designed binder)
chain: QDSTSDLIPAPPLSKVPLQQNFQDNQFQGKWYVVGWAGNVKLREDKQPQKMSATIYELKEDKSYDVTEVVFEQKKCHYIIKTFVPGSQPGEFTAGDIKSPPGYTSSLVRVVSTNYNQHAMVFFKKVSQNREFFWITLYGRTKELTSELKENFIRFSKSLGLPENHIVFPVPIDQCIDGGGGGSGGGGSGGGGSQDSTSDLIPAPPLSKVPLQQNFQDNQFQGKWYVVGLAGNAILREDKQPAKMFATIYELKEDKSYDVTSVRFEAKSCKYTIKTFVPGSQPGEFTAGYIKSAPGQTSTLVRVVSTNYNQHAMVFFKHVTQNREIFVITLYGRTKELTSELKENFIRFSKSLGLPENHIVFPVPIDQCIDG
notes: not shown: C-terminal His-tag
- EC50 [3]: 0.72 nM

B7: fusion protein of SEQ ID NO: 63 (designed binder)
chain: QDSTSDLIPAPPLSKVPLQQNFQDNQFQGKWYVVGRAGNNQLREDKSPPKMWATIYELKEDKSYDVTHVHFSTKKCRYIIDTFVPGSQPGEFTAGAIKSGPGLTSPLVRVVSTNYNQHAMVFFKWVTQNREWFTITLYGRTKELTSELKENFIRFSKSLGLPENHIVFPVPIDQCIDGGGGGSGGGGSGGGGSQDSTSDLIPAPPLSKVPLQQNFQDNQFQGKWYVVGLAGNAILREDKQPAKMFATIYELKEDKSYDVTSVRFEAKSCKYTIKTFVPGSQPGEFTAGYIKSAPGQTSTLVRVVSTNYNQHAMVFFKHVTQNREIFVITLYGRTKELTSELKENFIRFSKSLGLPENHIVFPVPIDQCIDG
notes: not shown: C-terminal His-tag
- EC50 [3]: 0.58 nM

B8: fusion protein of SEQ ID NO: 69 (designed binder)
chain: QDSTSDLIPAPPLSKVPLQQNFQDNQFQGKWYVVGLAGNAILREDKQPAKMFATIYELKEDKSYDVTSVRFEAKSCSYTSKTFVPGSQPGEFTAGNIKSAPGQTSTLVRVVSTNYNQHAMVFFKHVSQNRETFVITLYGRTKELTSELKENFIRFSKSLGLPENHIVFPVPIDQCIDGGGGGSGGGGSGGGGSQDSTSDLIPAPPLSKVPLQQNFQDNQFQGKWYVVGLAGNYRLREDKDPSKMGATIYELKEDKSYDVTQVQFDDKKCLYVIETFVPGSQPGEFTLGAIKSYPGLTSQLVRVVSTNYNQHAMVFVKKVWPNLEYFQIVLYGRTKELTSELKENFIRFSKSLGLPENHIVFPVPIDQCIDG
notes: not shown: C-terminal His-tag
- EC50 [3]: 0.65 nM

B11: fusion protein of SEQ ID NO: 64 (designed binder)
chain: QDSTSDLIPAPPLSKVPLQQNFQDNQFQGKWYVVGLAGNYRLREDKDPSKMGATIYELKEDKSYDVTQVQFDDKKCLYVIETFVPGSQPGEFTLGAIKSYPGLTSQLVRVVSTNYNQHAMVFVKKVWPNLEYFQIVLYGRTKELTSELKENFIRFSKSLGLPENHIVFPVPIDQCIDGGGGGSGGGGSGGGGSQDSTSDLIPAPPLSKVPLQQNFQDNQFQGKWYVVGLAGNAILREDKQPAKMFATIYELKEDKSYDVTSVRFEAKSCKYTIKTFVPGSQPGEFTAGYIKSAPGQTSTLVRVVSTNYNQHAMVFFKHVTQNREIFVITLYGRTKELTSELKENFIRFSKSLGLPENHIVFPVPIDQCIDG
notes: not shown: C-terminal His-tag
- EC50 [3]: 0.58 nM

Continued, values first:

- Kd [1]: 1.89 nM
- koff [1]: 0.000423 s⁻¹
- kon [1]: 223000 M⁻¹ s⁻¹
- Kd (cynomolgus CTGF): 0.452 nM
- koff (cynomolgus CTGF): 7.31e-05 s⁻¹
- kon (cynomolgus CTGF): 162000 M⁻¹ s⁻¹
- Kd (mouse CTGF (Abbexa)): 1.58 nM
- koff (mouse CTGF (Abbexa)): 0.000444 s⁻¹
- kon (mouse CTGF (Abbexa)): 281000 M⁻¹ s⁻¹
- Kd [2]: 0.249 nM
- koff [2]: 4.85e-05 s⁻¹
- kon [2]: 195000 M⁻¹ s⁻¹
B1: lipocalin mutein of SEQ ID NO: 31 (designed binder)
chain: QDSTSDLIPAPPLSKVPLQQNFQDNQFQGKWYVVGWAGNVKLREDKQPQKMSATIYELKEDKSYDVTEVVFEQKKCHYIIKTFVPGSQPGEFTAGDIKSPPGYTSSLVRVVSTNYNQHAMVFFKKVSQNREFFWITLYGRTKELTSELKENFIRFSKSLGLPENHIVFPVPIDQCIDG
notes: also called hNGAL mutein; not shown: C-terminal His-tag

- EC50 [3]: 0.83 nM
B4: fusion protein of SEQ ID NO: 73 (designed binder)
chain: B2 chain with Q47Y, A73N, S77V, A94T, T132F
notes: not shown: C-terminal His-tag

- EC50 [3]: 0.68 nM
B9: fusion protein of SEQ ID NO: 72 (designed binder)
chain: B8 chain with Q47Y, A73N, S77V, S80I, A94T, T132F
notes: not shown: C-terminal His-tag

- EC50 [3]: 0.7 nM
B10: fusion protein of SEQ ID NO: 75 (designed binder)
chain: B8 chain with S77K, S80I, N96Y, S127T, T132I
notes: not shown: C-terminal His-tag
